Reference: doi:10.1101/2022.08.24.505078, “Cyclic AMP competitively inhibits periplasmic phosphatases to coordinate nutritional growth with competence development of Haemophilus influenzae” (bioRxiv, 2022)

Target: the molecule itself
Experiment: SEC; purified protein on a Superdex 200 Increase 10/300 GL column; size read against standard proteins

Row | Protein | stoichiometry N
1 | AphAEc-His6 (periplasmic acid phosphatase AphA of E. coli, signal peptide removed, C-terminal six-histidine tag) (enzyme, UniProt P0AE22 26-237, looked up, AphA, non-specific periplasmic acid phosphatase of E. coli, with the N-terminal signal peptide removed; also called AphA-His6; Ct His6 tagged AphAEc; source: E. coli, purified (Ni-NTA, size exclusion chromatography on Superdex 200 Increase); not shown: His6, C-terminal, kept) SSPSPLNPGTNVARLAEQAPIHWVSVAQIENSLAGRPPMAVGFDIDDTVLFSSPGFWRGKKTFSPESEDYLKNPVFWEKMNNGWDEFSIPKEVARQLIDMHVRRGDAIFFVTGRSPTKTETVSKTLADNFHIPATNMNPVIFAGDKPGQNTKSQWLQDKNIRIFYGDSDNDITAARDVGARGIRILRASNSTYKPLPQAGAFGEEVIVNSEY | 2
2 | His6-AphAEc (periplasmic acid phosphatase AphA of E. coli, signal peptide removed, N-terminal six-histidine tag) (enzyme, UniProt P0AE22 26-237, looked up, AphA, non-specific periplasmic acid phosphatase of E. coli, with the N-terminal signal peptide removed; also called Nt His6 tagged AphAEc; source: E. coli, purified (Ni-NTA, size exclusion chromatography on Superdex 200 Increase); not shown: His6, N-terminal, kept) SSPSPLNPGTNVARLAEQAPIHWVSVAQIENSLAGRPPMAVGFDIDDTVLFSSPGFWRGKKTFSPESEDYLKNPVFWEKMNNGWDEFSIPKEVARQLIDMHVRRGDAIFFVTGRSPTKTETVSKTLADNFHIPATNMNPVIFAGDKPGQNTKSQWLQDKNIRIFYGDSDNDITAARDVGARGIRILRASNSTYKPLPQAGAFGEEVIVNSEY | 4
3 | tag-less AphAEc (AphA of E. coli after removal of the N-terminal His6-SUMO tag by Ulp1) (enzyme, AphA, non-specific periplasmic acid phosphatase of E. coli; protein of around 25 kDa after cleavage; The linker between SUMO and AphA was removed by mutagenesis; also called cleaved tag-less AphAEc; source: E. coli, purified as His6-SUMO-AphAEc, tag cleaved off with His6-Ulp1, size exclusion chromatography; not shown: His6-SUMO, N-terminal, cleaved) SPSPLNPGTNVARLAEQAPIHWVSVAQIENSLAGRPPMAVGFDIDDTVLFSSPGFWRGKKTFSPESEDYLKNPVFWEKMNNGWDEFSIPKEVARQLIDMHVRRGDAIFFVTGRSPTKTETVSKTLADNFHIPATNMNPVIFAGDKPGQNTKSQWLQDKNIRIFYGDSDNDITAARDVGARGIRILRASNSTYKPLPQAGAFGEEVIVNSEY | 4
